Results taken from patent US11001846B2, “Aptamers, nucleic acid molecules, polynucleotides, synthetic antibodies compositions for detecting PRRS viruses and treating PRRS virus infection” (AEROVIRUS TECHNOLOGIES INC., priority 2015, dated 2021).
“Also recorded” adds a separate entry of the source.

What was measured:
LHVA-93-3 PRRS virus = experiment: In-vivo lung virus titer, LHVA-93-3, comparison with control oligonucleotide and Tilmicosin (Example 4); parameters: species or system swine; settings: for change in lung virus titer: LHVA-93-3, FIG. 13b
Protocol: Swine were inoculated intranasally with sub-lethal infectious fluid containing 40TCID50/ml PRRS virus (LHVA-93-3) with or without 2.5 nmole A505 aptamer for different time intervals. Pig body weight was monitored for 2 weeks. Viral titer in the lungs was determined by the CPE titration method (OIE Terrestrial Manual—May 2015, Chapter 2.8.7—Porcine Reproductive and Respiratory Syndrome, section 1.1.3). Other pigs were sacrificed 6 days following viral inoculation and lungs were removed and homogenized in PBS 0.1% BSA (10% w/v). Following homogenization, samples were centrifuged to remove debris and stored at −80° C.
The cells/viruses were incubated for 2-5 days and observe daily for a CPE. At day 2, seed macrophages in new microtitre plates. Fifty (50) μl of the supernatants were transferred from the plates of the first passage to the corresponding wells of the freshly seeded plates (second passage). The wells were incubated for 2-5 days and observed daily for a CPE. The results of the CPE assays were presented as log TCID50.
Tilmicosin (Pulmotil®) was purchased from Eli Lilly (Elanco®), Canada.
Were implemented as described hereinabove. A dose of 15 ug/Kg of A505 was used.
The ability of the A505 aptamer to inhibit PRRSV infection was also compared to that of one of the currently available “anti-PRRSV” drugs, the antibiotic Tilmicosin. To this end, both A505 and Tilmicosin were administered once, together with the virus, using the intra-nasal route. As is shown in Table 2 below, a dose of 60 mg/pig of Tilmicosin (1 mg/kg body weight) reduced virus titer by 0.42 log TCID50, representing a 2.6-fold reduction in virus burden. This is in comparison to a reduction by 1.21 log TCID50 affected by A505 in this particular experiment (over 10 fold reduction in virus burden).

type 1 (Lelystad) PRRSV = settings: after MTT screening of 10 candidates
Excerpt: (§2) Using various tetrazolium (MTT) colorimetric assay procedures^[xxxvi], these aptamers have been “screened” to identify the ones having the highest and fastest binding capabilities for detection and therapeutics purposes for both types of PRRSV. It should be pointed out that the aptamer having the quickest binding efficiency but not necessarily the highest binding strength is the most suitable one for the biosensor.

[1] = test system: M-S-S-GP5 peptidic complex; experiment: ELISA reverse screening: binding to M-S-S-GP5 peptidic complex, type 1; parameters: species or system type 1 PRRSV (Lelystad); settings: type 1 PRRSV complex
Protocol: (§1) ssDNA aptamers were denatured at 80° C. for 10 min and then cooled on ice for 10 min. Aptamers (30 nmole) were mixed with 25 μg of M-S-S-GP5 peptidic complex (further described in Example 6 below) in 500 μl selection buffer (50 mM Tris-HCl; pH 7.4, 5 mM KCl, 100 mM NaCl, 1 mM MgCl2 tRNA, 0.2% BSA) at 37° C. for 30 min. Aptamer-peptide complex was purified by adding the 25 μl Ni-NTA superflow and amplified by PCR using primers directed to the common T3 sequences in the aptamer library, and 3′-primer (i.e. -[…]-3′). SELEX was repeated 3 times, following which amplified nucleotides were transformed into E. coli. PCR conditions for SELEX included 5 min 95° C./1 min 95° C./1 min 55° C./1 min 72° C./10 min 72° C. and 100 pmole of each primer.
Selected ssDNA molecules from each individual clone were biotinylated using the B-T3 which is same sequence with 5′ primer (T3 primer), and Klenow fragment (2 unit/ml). To prepare single stranded biotin conjugated CoocSeq5 aptamer for the reverse screening, T3 Primer was Biotin labelled. A 96-well flat bottom ELISA plate was prepared by coating each well with 100 μl of streptavidin (100 μg/ml) diluted in 0.1 M NaHCO3 following by a 37° C. overnight incubation. Following several washings with PBS, wells were blocked with 200 μl of PBS containing 1% BSA for 2 hours at room temperature and subsequent washing three times with PBS-T (10 mM PBS containing 0.05% (v/v) Tween-20). Thereafter, 100 μl of 2.5 pmole/100 μl biotinylated-ssDNA were added to the wells and incubated at 37° C. for 2 hours followed by washing four times with PBS-T. T3 primer was used as negative control. Following washing, 100 μl of fluid containing 2 μg histidine labelled M-S-S-GP5 peptidic complex were added to the indicated wells and incubated at 37° C. for 2 hours. The wells were then washed for 4 times with PBS-T. The reverse screening assay was completed by ELISA. […]

type 2 PRRSV = settings: after MTT screening of 10 candidates
Excerpt: as §2

[2] = test system: M-S-S-GP5 peptidic complex; experiment: ELISA reverse screening: binding to M-S-S-GP5 peptidic complex, type 2; settings: type 2 PRRSV complex
Protocol: as §1
Selected ssDNA molecules from each individual clone were biotinylated using the B-T3 which is same sequence with 5′ primer (T3 primer), and Klenow fragment (2 unit/ml). To prepare single stranded biotin conjugated CoocSeq5 aptamer for the reverse screening, T3 Primer was Biotin labelled. A 96-well flat bottom ELISA plate was prepared by coating each well with 100 μl of streptavidin (100 μg/ml) diluted in 0.1 M NaHCO3 following by a 37° C. overnight incubation. Following several washings with PBS, wells were blocked with 200 μl of PBS containing 1% BSA for 2 hours at room temperature and subsequent washing three times with PBS-T (10 mM PBS containing 0.05% (v/v) Tween-20). […]
High binding capacity ELISA plates (Immunoplate, Nunc) were coated with 100 μl allantoic fluid containing 500 TCID50 of various PRRS virus strains diluted in phosphate buffered saline (PBS) by incubating at 4° C. overnight. […] Following this incubation period, plates were washed five times in PBS-T and bound antibodies were detected using horseradish peroxidase labelled goat anti-mouse IgG conjugates (HRP). […] Reaction was terminated with 50 μl of 2M H2SO4, plates were read with a multichannel spectrophotometer at 570 nm.

[3] = test system: intact PRRS virus (LHVA-93-3); experiment: ELISA binding to intact PRRS virus; parameters: species or system PRRSV; settings: vs control ssDNA or between aptamers, FIG. 8a
LHVA-3 PRRS virus = experiment: MTT assay, in vitro protection of PAMs or MARC-145 cells from LHVA-3 infection; type: cell-based, PRRSV; settings: 500 pmole; LHVA-3 and NVSL; FIG. 9b
Protocol: PAMs or MARC-145 cells were plated in 96 well plates (7×10^4/well) one day prior to the assay. […] Following infection, cells were incubated in growth medium at 37° C. for 72 hours. MTT assay was performed by adding 4 mg/ml MTT (3-[4,5-Dimethylthiazol-2-yl]-2,5-diphenyltetrazolium bromide dissolved in PBS to the cell cultures and incubation at 37° C. for 3 hours. Plates were then centrifuged at 800×g for 10 min. Supernatants were aspirated and the formazan dye was dissolved in 150 μl/well of isopropyl alcohol, and O.D. values were determined with an ELISA reader at 570 nm.
In Vitro Viral Protection Prior to Viral Infection PAMs or MARC-145 cells were plated on 96 well plates (7×10^4/well) 24 hours prior to the experiment. Each well was washed twice with DPBS prior to treating the cells with various amounts of A505 (12.5 to 2000 pmole) at 37° C. for the indicated time points. […] Following incubation, cells were transferred to growth medium and incubated at 37° C. for 72 hours. Thereafter an MTT assay was implemented as described.
In Vitro Viral Protection Following Viral Infection—PAMs or MARC-145 cells were plated on 96 well plates (7×10^4/well) 24 hours prior to viral infection. Viral infection was effected as described above. Infected cells were gently washed with DPBS for 3 times. Cells were then treated with various amounts of A505 (12.5 to 2000 pmole) for 1 hour at 37° C. Following incubation, cells were transferred to growth medium and incubated at 37° C. for 72 hours. Thereafter an MTT assay was implemented as described.

CC[C@H]1OC(=O)C[C@@H](O)[C@H](C)[C@@H](O[C@@H]2O[C@H](C)[C@@H](O)[C@H](N(C)C)[C@H]2O)[C@@H](CCN2C[C@H](C)C[C@H](C)C2)C[C@@H](C)C(=O)/C=C/C(C)=C/[C@@H]1CO[C@@H]1O[C@H](C)[C@@H](O)[C@@H](OC)[C@H]1OC [Tilmicosin, reference compound]
Reduction Factor (LHVA-93-3 PRRS virus; Table 2, administered once with the virus, intra-nasal): 2.6 | Δ (log TCID50), reduction of virus titer (LHVA-93-3 PRRS virus; administered once together with the virus, intra-nasal, Tilmicosin 60 mg/pig (1 mg/kg), A505 15 ug/Kg): 0.42 log TCID50 | reduction in virus burden (LHVA-93-3 PRRS virus; administered once with the virus, intra-nasal): 2.6 fold

B1: PEU-842: ssDNA aptamer binding type 1 (Lelystad) PRRSV M-S-S-GP5 complex (nucleic acid)
DNA: GGGCGACCCTGAAGAGGACCAGAAGCACGGACCACACACAGCGTATCGAAACGGTGAAAGCCGTAGGTTGCCC
modifications: DNA, backbone and methylation of C not given here
binding capabilities from biosensing and therapeutic perspectives (type 1 (Lelystad) PRRSV): good binding capabilities | binding to the M-S-S-GP5 complex/heterodimer [1]: binding capacity to the M-S-S-GP5 complex; also recorded: found to bind the M-S-S-GP5 heterodimer

B2: PEU-499: ssDNA aptamer binding type 1 (Lelystad) PRRSV M-S-S-GP5 complex (nucleic acid)
DNA: GGGCGACCCTGAAGAGTACACACGGGACACACACACACTCACTAGACGAAACGGTGAAAGCCGTAGGTTGCCC
modifications: DNA, backbone and methylation of C not given here
binding capabilities from biosensing and therapeutic perspectives (type 1 (Lelystad) PRRSV): good binding capabilities | binding to the M-S-S-GP5 complex/heterodimer [1]: binding capacity to the M-S-S-GP5 complex; also recorded: found to bind the M-S-S-GP5 heterodimer

B3: A507: ssDNA aptamer binding type 2 PRRSV M-S-S-GP5 complex (nucleic acid)
DNA: GGGCGACCCTGAAGAGGTTTGCATATTATAGTTATAGGAGGTGTGTAATGGACGAAACGGTGAAAGCCGTAGGTTGCCC
modifications: DNA, backbone and methylation of C not given here
binding capabilities from biosensing and therapeutic perspectives (type 2 PRRSV): highest binding capabilities | binding to the M-S-S-GP5 complex/heterodimer [2]: binding capacity to the M-S-S-GP5 complex; also recorded: found to bind the M-S-S-GP5 heterodimer

B4: PEU-962: ssDNA aptamer binding type 1 (Lelystad) PRRSV M-S-S-GP5 complex (nucleic acid)
DNA: GGGCGACCCTGAAGAGGATAGACAATAGCACACCACGCCCCTGCCACGAAACGGTGAAAGCCGTAGGTTGCCC
modifications: DNA, backbone and methylation of C not given here
binding capabilities from biosensing and therapeutic perspectives (type 1 (Lelystad) PRRSV): good binding capabilities | binding to the M-S-S-GP5 complex/heterodimer [1]: binding capacity to the M-S-S-GP5 complex; also recorded: found to bind the M-S-S-GP5 heterodimer

B5: PEU-852: ssDNA aptamer binding type 1 (Lelystad) PRRSV M-S-S-GP5 complex (nucleic acid)
DNA: GGGCGACCCTGAAGAGGACACTGCACGTACACAACGAGGATGAACACGAAACGGTGAAAGCCGTAGGTTGCCC
modifications: DNA, backbone and methylation of C not given here
binding capabilities from biosensing and therapeutic perspectives (type 1 (Lelystad) PRRSV): good binding capabilities | binding to the M-S-S-GP5 complex/heterodimer [1]: binding capacity to the M-S-S-GP5 complex; also recorded: found to bind the M-S-S-GP5 heterodimer

B6: PEU-424: ssDNA aptamer binding type 1 (Lelystad) PRRSV M-S-S-GP5 complex (nucleic acid)
DNA: GGGCGACCCTGAAGAGGATGTTGATAGAGCGCCGACCACACACGCACGAAACGGTGAAAGCCGTAGGTTGCCC
modifications: DNA, backbone and methylation of C not given here
binding capabilities from biosensing and therapeutic perspectives (type 1 (Lelystad) PRRSV): good binding capabilities | binding to the M-S-S-GP5 complex/heterodimer [1]: binding capacity to the M-S-S-GP5 complex; also recorded: found to bind the M-S-S-GP5 heterodimer

B7: A501: ssDNA candidate aptamer for type 2 PRRSV M-S-S-GP5 complex; used as control irrelevant nucleotide in Example 4 (nucleic acid)
DNA: GGGCGACCCTGAAGAGAAAGGTGAGTTTATTGCGGGGGTTATTTATTGCTTCGAAACGGTGAAAGCCGTAGGTTGCCC
modifications: DNA, backbone and methylation of C not given here
change in lung virus titer (LHVA-93-3 PRRS virus): insignificant change in the viral titer

B8: A508: ssDNA aptamer binding type 2 PRRSV M-S-S-GP5 complex (nucleic acid)
DNA: GGGCGACCCTGAAGAGACTGGTGAGTTAATGTTTTTTCTTAGCCTTGTATCGAAACGGTGAAAGCCGTAGGTTGCCC
modifications: DNA, backbone and methylation of C not given here
binding capabilities from biosensing and therapeutic perspectives (type 2 PRRSV): highest binding capabilities | binding level to the intact virus [3]: significant binding | in-vitro infectivity of the viruses / cell mortality (LHVA-3 PRRS virus): capable of reducing the in-vitro infectivity of the viruses | binding to the M-S-S-GP5 complex/heterodimer [2]: highly significant differences from the control ssDNA; also recorded: binding capacity to the M-S-S-GP5 complex; also recorded: found to bind the M-S-S-GP5 heterodimer | change in lung virus titer (LHVA-93-3 PRRS virus): less effective than A505 was still capable of reducing the lung virus titer
